{"source": "paper PMC4192540", "about": "“Targeted In Vivo Inhibition of Specific Protein–Protein Interactions Using Recombinant Antibodies” (PLoS ONE, 2014)", "binders": {"B1": {"name": "scFv hB7A, Gal4 DNA binding domain fusion (scFv, V domains shown)", "VH": "EVQLLESGGGLVQPGGSLRLSCAASGFTFSFYRMSWVRQAPGKGLEWVSAISGSGGSTYYADSVKGRFTISRDNSKNTLYLQMNSLRAEDTAVYYCAKRVLTFDYWGQGTLVTVSS", "VL": "DIQMTQSPSSLSASVGDRVTITCRASQSIRKRLNWYQQKPGKAPKLLIYAASSLQSGVPSRFSGSGSGTDFTLTISSLQPEDFATYYCQQSYSTPPTFGQGTKVEIK", "notes": "selected from Human Single Fold scFv Library A+B; cloned between NcoI and NotI of pGBKT7; source: yeast two-hybrid fusion (pGBKT7, S. cerevisiae PJ69-4A)"}, "B2": {"name": "nYFP:scFv-hB7A (scFv, V domains shown)", "VH": "EVQLLESGGGLVQPGGSLRLSCAASGFTFSFYRMSWVRQAPGKGLEWVSAISGSGGSTYYADSVKGRFTISRDNSKNTLYLQMNSLRAEDTAVYYCAKRVLTFDYWGQGTLVTVSS", "VL": "DIQMTQSPSSLSASVGDRVTITCRASQSIRKRLNWYQQKPGKAPKLLIYAASSLQSGVPSRFSGSGSGTDFTLTISSLQPEDFATYYCQQSYSTPPTFGQGTKVEIK", "notes": "sub-cloned from pY3HS with BglII and EcoRI, so the StrepTag II of the cassette may be carried along (surmise); source: A. thaliana Col-0 mesophyll protoplasts, transfected; not shown: N-terminal fragment of YFP (nYFP), N-terminal, kept"}, "B3": {"name": "scFv-hB7A:nYFP (scFv, V domains shown)", "VH": "EVQLLESGGGLVQPGGSLRLSCAASGFTFSFYRMSWVRQAPGKGLEWVSAISGSGGSTYYADSVKGRFTISRDNSKNTLYLQMNSLRAEDTAVYYCAKRVLTFDYWGQGTLVTVSS", "VL": "DIQMTQSPSSLSASVGDRVTITCRASQSIRKRLNWYQQKPGKAPKLLIYAASSLQSGVPSRFSGSGSGTDFTLTISSLQPEDFATYYCQQSYSTPPTFGQGTKVEIK", "notes": "sub-cloned from pY3HS with BglII and EcoRI, so the StrepTag II of the cassette may be carried along (surmise); source: A. thaliana Col-0 mesophyll protoplasts, transfected; not shown: N-terminal fragment of YFP (nYFP), C-terminal, kept"}, "B4": {"name": "scFv hB7A with C-terminal c-myc-tag (scFv, V domains shown)", "VH": "EVQLLESGGGLVQPGGSLRLSCAASGFTFSFYRMSWVRQAPGKGLEWVSAISGSGGSTYYADSVKGRFTISRDNSKNTLYLQMNSLRAEDTAVYYCAKRVLTFDYWGQGTLVTVSS", "VL": "DIQMTQSPSSLSASVGDRVTITCRASQSIRKRLNWYQQKPGKAPKLLIYAASSLQSGVPSRFSGSGSGTDFTLTISSLQPEDFATYYCQQSYSTPPTFGQGTKVEIK", "notes": "source: E. coli BL21(DE3), periplasmic extract; purified (ammonium sulfate, Protein L column); not shown: c-myc-tag, C-terminal, kept"}, "B5": {"name": "scFv hB7A, ectopic expression from pY3HS (scFv, V domains shown)", "VH": "EVQLLESGGGLVQPGGSLRLSCAASGFTFSFYRMSWVRQAPGKGLEWVSAISGSGGSTYYADSVKGRFTISRDNSKNTLYLQMNSLRAEDTAVYYCAKRVLTFDYWGQGTLVTVSS", "VL": "DIQMTQSPSSLSASVGDRVTITCRASQSIRKRLNWYQQKPGKAPKLLIYAASSLQSGVPSRFSGSGSGTDFTLTISSLQPEDFATYYCQQSYSTPPTFGQGTKVEIK", "notes": "source: S. cerevisiae PJ69-4A, ectopic expression from pY3HS"}}, "settings_in_all_cases": "partners not purified", "key": {"[1]": {"biological_target": "T1, ARABIDOPSIS … PHOSPHOTRANSFER PROTEIN 2, Gal4 activation domain fusion (A. thaliana, UniProt Q9ZNV8)", "T1 construct": "ARABIDOPSIS … PHOSPHOTRANSFER PROTEIN 2 (AHP2), A. thaliana; also called AHP2; source: yeast two-hybrid fusion (pGADT7-DEST, S. cerevisiae PJ69-4A)", "T1 sequence (Q9ZNV8 whole entry, the tested form may be a part)": "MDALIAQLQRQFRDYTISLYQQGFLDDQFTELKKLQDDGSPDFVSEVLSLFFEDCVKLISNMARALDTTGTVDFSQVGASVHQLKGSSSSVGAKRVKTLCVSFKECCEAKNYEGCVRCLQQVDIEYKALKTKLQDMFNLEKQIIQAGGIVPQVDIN", "experiment": "two-hybrid; recombinant antibodies as Gal4 DNA BD fusions (pGBKT7), AHP proteins as Gal4 AD fusions (pGADT7-DEST); S. cerevisiae PJ69-4A; growth after 3 days at 30°C on media lacking Leu, Trp and His or Ade; 1-5 mM 3-Amino-1,2,4-triazole for stringent selection"}, "[2]": {"biological_target": "T2, ARABIDOPSIS … PHOSPHOTRANSFER PROTEIN 3, Gal4 activation domain fusion (A. thaliana, UniProt Q9SAZ5)", "T2 construct": "ARABIDOPSIS … PHOSPHOTRANSFER PROTEIN 3 (AHP3), A. thaliana; also called AHP3; source: yeast two-hybrid fusion (pGADT7-DEST, S. cerevisiae PJ69-4A)", "T2 sequence (Q9SAZ5 whole entry, the tested form may be a part)": "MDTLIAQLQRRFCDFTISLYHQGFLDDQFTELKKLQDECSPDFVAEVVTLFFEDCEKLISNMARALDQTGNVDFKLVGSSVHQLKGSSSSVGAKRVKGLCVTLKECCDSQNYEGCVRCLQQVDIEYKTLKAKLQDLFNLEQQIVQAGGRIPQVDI", "experiment": "two-hybrid; recombinant antibodies as Gal4 DNA BD fusions (pGBKT7), AHP proteins as Gal4 AD fusions (pGADT7-DEST); S. cerevisiae PJ69-4A; growth after 3 days at 30°C on media lacking Leu, Trp and His or Ade; 1-5 mM 3-Amino-1,2,4-triazole for stringent selection"}, "[3]": {"biological_target": "T3, ARABIDOPSIS … PHOSPHOTRANSFER PROTEIN 4, Gal4 activation domain fusion (Arabidopsis thaliana (Mouse-ear cress)., UniProt Q9LU15)", "T3 construct": "ARABIDOPSIS … PHOSPHOTRANSFER PROTEIN 4 (AHP4), A. thaliana; also called AHP4; source: yeast two-hybrid fusion (pGADT7-DEST, S. cerevisiae PJ69-4A)", "T3 sequence (Q9LU15 whole entry, the tested form may be a part)": "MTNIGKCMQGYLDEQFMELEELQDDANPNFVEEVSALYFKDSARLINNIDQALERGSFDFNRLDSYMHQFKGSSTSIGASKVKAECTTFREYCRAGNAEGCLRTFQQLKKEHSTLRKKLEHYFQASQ", "experiment": "two-hybrid; recombinant antibodies as Gal4 DNA BD fusions (pGBKT7), AHP proteins as Gal4 AD fusions (pGADT7-DEST); S. cerevisiae PJ69-4A; growth after 3 days at 30°C on media lacking Leu, Trp and His or Ade; 1-5 mM 3-Amino-1,2,4-triazole for stringent selection"}, "[4]": {"biological_target": "T4, ARABIDOPSIS … PHOSPHOTRANSFER PROTEIN 5, Gal4 activation domain fusion (A. thaliana, UniProt Q8L9T7)", "T4 construct": "ARABIDOPSIS … PHOSPHOTRANSFER PROTEIN 5 (AHP5), A. thaliana; also called AHP5; source: yeast two-hybrid fusion (pGADT7-DEST, S. cerevisiae PJ69-4A)", "T4 sequence (Q8L9T7 whole entry, the tested form may be a part)": "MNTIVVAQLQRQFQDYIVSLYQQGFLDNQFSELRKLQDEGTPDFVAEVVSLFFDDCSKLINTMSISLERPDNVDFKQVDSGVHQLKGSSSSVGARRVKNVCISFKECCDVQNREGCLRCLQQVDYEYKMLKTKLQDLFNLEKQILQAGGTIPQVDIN", "experiment": "two-hybrid; recombinant antibodies as Gal4 DNA BD fusions (pGBKT7), AHP proteins as Gal4 AD fusions (pGADT7-DEST); S. cerevisiae PJ69-4A; growth after 3 days at 30°C on media lacking Leu, Trp and His or Ade; 1-5 mM 3-Amino-1,2,4-triazole for stringent selection"}, "[5]": {"biological_target": "T5, ARABIDOPSIS … PHOSPHOTRANSFER PROTEIN 6, Gal4 activation domain fusion (Arabidopsis thaliana (Mouse-ear cress)., UniProt Q9SSC9)", "T5 construct": "ARABIDOPSIS … PHOSPHOTRANSFER PROTEIN 6 (AHP6), A. thaliana; also called AHP6; source: yeast two-hybrid fusion (pGADT7-DEST, S. cerevisiae PJ69-4A)", "T5 sequence (Q9SSC9 whole entry, the tested form may be a part)": "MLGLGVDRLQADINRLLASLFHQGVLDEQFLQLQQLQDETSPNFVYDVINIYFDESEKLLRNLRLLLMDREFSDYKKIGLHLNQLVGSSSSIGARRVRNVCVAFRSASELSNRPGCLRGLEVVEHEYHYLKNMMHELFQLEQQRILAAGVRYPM", "experiment": "two-hybrid; recombinant antibodies as Gal4 DNA BD fusions (pGBKT7), AHP proteins as Gal4 AD fusions (pGADT7-DEST); S. cerevisiae PJ69-4A; growth after 3 days at 30°C on media lacking Leu, Trp and His or Ade; 1-5 mM 3-Amino-1,2,4-triazole for stringent selection"}, "[6]": {"biological_target": "T6, ARABIDOPSIS … PHOSPHOTRANSFER PROTEIN 1, Gal4 activation domain fusion (Arabidopsis thaliana (Mouse-ear cress)., UniProt Q9ZNV9)", "T6 construct": "ARABIDOPSIS … PHOSPHOTRANSFER PROTEIN 1 (AHP1), A. thaliana; also called AHP1; source: yeast two-hybrid fusion (pGADT7-DEST, S. cerevisiae PJ69-4A)", "T6 sequence (Q9ZNV9 whole entry, the tested form may be a part)": "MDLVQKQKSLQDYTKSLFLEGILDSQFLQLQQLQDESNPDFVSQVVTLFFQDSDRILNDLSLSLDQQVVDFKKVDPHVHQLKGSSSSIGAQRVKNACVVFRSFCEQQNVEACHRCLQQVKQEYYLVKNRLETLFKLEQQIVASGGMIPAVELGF", "experiment": "two-hybrid; recombinant antibodies as Gal4 DNA BD fusions (pGBKT7), AHP proteins as Gal4 AD fusions (pGADT7-DEST); S. cerevisiae PJ69-4A; growth after 3 days at 30°C on media lacking Leu, Trp and His or Ade; 1-5 mM 3-Amino-1,2,4-triazole for stringent selection"}, "AHP3:cYFP": {"biological_target": "T7, AHP3:cYFP (Arabidopsis thaliana (Mouse-ear cress)., UniProt Q9SAZ5)", "T7 construct": "ARABIDOPSIS … PHOSPHOTRANSFER PROTEIN 3 (AHP3), A. thaliana; source: A. thaliana Col-0 mesophyll protoplasts, transfected; not shown: C-terminal fragment of YFP (cYFP), C-terminal, kept", "T7 sequence (Q9SAZ5 whole entry, the tested form may be a part)": "as the sequence (Q9SAZ5 whole entry, the tested form may be a part) above", "experiment": "split reporter (BiFC, NanoBiT); bimolecular fluorescent complementation with split YFP in A. thaliana Col-0 mesophyll protoplasts, 16 h at room temperature, confocal microscopy"}, "cYFP:CKI1 RD": {"biological_target": "T8, cYFP:CKI1 RD (Arabidopsis thaliana, UniProt O22267)", "T8 construct": "CYTOKININ INDEPENDENT … KINASE 1 (CKI1), A. thaliana, receiver domain; source: A. thaliana mesophyll protoplasts, co-transformed; not shown: C-terminal fragment of YFP (cYFP), N-terminal, kept", "T8 sequence (O22267 whole entry, looked up, the tested form may be a part)": "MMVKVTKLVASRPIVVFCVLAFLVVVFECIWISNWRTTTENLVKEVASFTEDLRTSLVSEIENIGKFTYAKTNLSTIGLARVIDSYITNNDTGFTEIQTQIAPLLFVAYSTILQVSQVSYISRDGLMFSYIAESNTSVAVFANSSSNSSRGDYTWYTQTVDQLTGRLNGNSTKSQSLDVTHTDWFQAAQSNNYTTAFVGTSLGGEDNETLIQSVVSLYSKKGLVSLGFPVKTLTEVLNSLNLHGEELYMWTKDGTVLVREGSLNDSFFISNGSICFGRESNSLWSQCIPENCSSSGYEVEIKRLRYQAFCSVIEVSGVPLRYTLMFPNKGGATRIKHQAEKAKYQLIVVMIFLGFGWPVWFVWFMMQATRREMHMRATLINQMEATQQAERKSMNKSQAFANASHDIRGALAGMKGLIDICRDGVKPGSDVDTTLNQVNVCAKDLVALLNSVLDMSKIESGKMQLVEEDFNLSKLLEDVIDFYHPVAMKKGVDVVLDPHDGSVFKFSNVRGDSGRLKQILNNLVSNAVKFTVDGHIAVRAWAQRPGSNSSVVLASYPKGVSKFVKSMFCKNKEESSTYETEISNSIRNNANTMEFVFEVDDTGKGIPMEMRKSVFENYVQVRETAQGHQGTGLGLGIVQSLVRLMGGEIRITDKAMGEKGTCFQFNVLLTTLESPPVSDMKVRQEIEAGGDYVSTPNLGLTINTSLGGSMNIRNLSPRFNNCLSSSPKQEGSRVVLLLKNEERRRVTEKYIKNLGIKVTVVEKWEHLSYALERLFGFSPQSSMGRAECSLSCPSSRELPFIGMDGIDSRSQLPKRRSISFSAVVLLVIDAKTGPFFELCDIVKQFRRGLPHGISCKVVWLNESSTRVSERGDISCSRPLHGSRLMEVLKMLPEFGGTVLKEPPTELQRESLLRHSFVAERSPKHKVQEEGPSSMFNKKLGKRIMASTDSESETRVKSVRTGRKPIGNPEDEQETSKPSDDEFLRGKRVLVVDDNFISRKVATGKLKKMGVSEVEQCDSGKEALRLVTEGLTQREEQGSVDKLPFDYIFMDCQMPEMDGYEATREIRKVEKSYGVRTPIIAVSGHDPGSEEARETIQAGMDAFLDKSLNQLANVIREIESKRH", "experiment": "split reporter (BiFC, NanoBiT); bimolecular fluorescent complementation with split YFP in A. thaliana Col-0 mesophyll protoplasts, 16 h at room temperature, confocal microscopy"}, "[7]": {"biological_target": "T9, recombinant ARABIDOPSIS … PHOSPHOTRANSFER PROTEIN 3 with 6x-His-tag (Arabidopsis thaliana (Mouse-ear cress)., UniProt Q9SAZ5)", "T9 construct": "ARABIDOPSIS … PHOSPHOTRANSFER PROTEIN 3 (AHP3), A. thaliana; also called AHP3; AHP3 antigen; source: purified", "T9 sequence (Q9SAZ5 whole entry)": "as the sequence (Q9SAZ5 whole entry, the tested form may be a part) above", "experiment": "far-Western, overlay or dot blot; total protein extracts of bacterially expressed AHP proteins separated by SDS-PAGE and blotted on PVDF; periplasmic extract with the scFv diluted 1:2 in blocking buffer (5% skimmed milk, TBS, 0.1% Tween-20), 1 h; detected by anti-c-myc-tag antibody"}, "[8]": {"biological_target": "T2, ARABIDOPSIS … PHOSPHOTRANSFER PROTEIN …", "experiment": "two-hybrid; yeast three-hybrid: receiver domain as Gal4 BD fusion, AHP proteins as Gal4 AD fusions, scFv hB7A expressed ectopically from pY3HS or empty pY3HS; S. cerevisiae PJ69-4A; media lacking Leu, Trp, Ura and His or Ade, or with 1 mM 3-Amino-1,2,4-triazole"}}, "data": [{"binder": "B1", "values": [{"measurement": "binding result", "setting": "[1]", "result": "no binding"}, {"measurement": "binding result", "setting": "[2]", "result": "binds"}, {"measurement": "binding result", "setting": "[3]", "result": "no binding"}, {"measurement": "binding result", "setting": "[4]", "result": "no binding"}, {"measurement": "binding result", "setting": "[5]", "result": "no binding"}, {"measurement": "binding result", "setting": "[6]", "result": "no binding"}]}, {"binder": "B2", "values": [{"measurement": "binding result", "setting": "AHP3:cYFP", "result": "binds"}, {"measurement": "binding result", "setting": "cYFP:CKI1 RD", "result": "no binding"}]}, {"binder": "B3", "values": [{"measurement": "binding result", "setting": "AHP3:cYFP", "result": "binds"}]}, {"binder": "B4", "values": [{"measurement": "binding result", "setting": "[7]", "result": "binds"}]}, {"binder": "B5", "values": [{"measurement": "binding result", "setting": "[8]", "result": "binds"}]}]}
